# Assay results reported in the supplement of paper PMC10724198.
# ± gives the standard deviation of the averaged measurements.
# System: Saccharomyces cerevisiae
# Assay: protein stability index of tFT-peptide fusion (C-terminal peptide) (PSI (0-1 scale)); higher = more stable (slower turnover)
# Settings: genetic background: wild type; temperature: 30 C
# 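Further: PSI is a weighted mean of sequencing reads over stability bins, variants kept only with over 10 reads, mCherry proximal and sfGFP distal, peptide attached via GGGS linker.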
row,Sequence,protein stability index
1,CSPGVSGVSSVD,0.685 ± 0.026
2,AADSKERPPRPP,0.625 ± 0.0092
3,RTHIKEYKNNKI,0.647 ± 0.035
4,PPLLTPSVPFSS,0.715 ± 0.033
5,ALKLVGSVWFGG,0.676 ± 0.15
6,CTLSFRVAFFSL,0.5848 ± 0.00071
7,TDLSLSPAALRH,0.717 ± 0.1
8,TARRAAARSSQL,0.742 ± 0.03
9,RLPPPLALDFRP,0.6308 ± 0.0063
10,CRRRWSAPGGSR,0.7176 ± 0.0047
11,YEGARAPAGGEK,0.689 ± 0.034
12,GFCCPMFLALFS,0.587 ± 0.022
13,GGVGGRGIGFPR,0.684 ± 0.055
14,LGILVFRGASFL,0.7351 ± 0.007
15,EGTPGARSQGRE,0.662 ± 0.035
16,ATHPGCATPDAH,0.704 ± 0.015
17,SLPAPRLGCIPC,0.64 ± 0.044
18,LGGERERGRKRG,0.672 ± 0.048
19,PARTSAPPSPLI,0.686 ± 0.0075
20,TNGPSVWYFLVL,0.575 ± 0.052
21,DTYKDSHLNRRI,0.664 ± 0.022
22,GQQLSLRGVVHW,0.844 ± 0.2
23,PHRAPPRETRLG,0.837 ± 0.015
24,SKSDRNMQTIHY,0.605 ± 0.067
25,FSGLNWLLCHSK,0.704 ± 0.015
26,ERPQTKPCQTPL,0.728 ± 0.038

row,Sequence,protein stability index
1,LPLPPPCSRVLF,0.644 ± 0.074
2,FRLAPPSVYDFV,0.7008 ± 0.002
3,FPRRLLPLSPPP,0.704 ± 0.015
4,WGSLVRLFGLWR,0.6541 ± 0.0015
5,VVFSPQFRLPVP,0.66 ± 0.024
6,GVLRAWARLWGN,0.599 ± 0.039
7,TEKAEVSTSSCR,0.71 ± 0.033
8,PSVPPSPPAPPT,0.687 ± 0.032
9,GRRRVSTAPRTT,0.739 ± 0.056
10,FPHPPPSLPSPR,0.789 ± 0.064
11,ATSYRPPHFAIP,0.693 ± 0.011
12,TEGMISSHRVIH,0.727 ± 0.058
13,VFLVESFSPPNA,0.701 ± 0.029
14,PLPPAPPPPPPP,0.728 ± 0.029
15,PFPHPPPPSPTP,0.687 ± 0.021
16,APPAPPLPAIPL,0.675 ± 0.038
17,YLVSYLSLFLSF,0.504 ± 0.029
18,LWCDTRIDMSRH,0.737 ± 0.038
19,PPPSSIGRTPIS,0.693 ± 0.033
20,VGLFRESLFRRG,0.714 ± 0.072
21,SPVSPTSNSPAC,0.649 ± 0.085
22,QTRRQKDAEHPR,0.714 ± 0.023
23,VVTRANVRRDKM,0.672 ± 0.023
24,PPAPLALPRLPS,0.715 ± 0.061
25,FCLLPPFPFFRS,0.661 ± 0.022
26,ENDRKKDKERIK,0.678 ± 0.013

row,Sequence,protein stability index
1,FAGLVSPASLHP,0.686 ± 0.026
2,GEGLWGGRGRRW,0.687 ± 0.046
3,QTRQPKRSDEEK,0.686 ± 0.014
4,GVGFGWGGVWME,0.691 ± 0.0073
5,FVSLVATASHWV,0.568 ± 0.033
6,ESEKKHNKKRRV,0.654 ± 0.069
7,PLFGLQTPTLHR,0.712 ± 0.057
8,ATVARNTDTSSP,0.679 ± 0.017
9,ITLSCFPRPFPL,0.691 ± 0.02
10,PLPLFPLPPVAP,0.66 ± 0.012
11,PTHPSRLRLFSA,0.612 ± 0.024
12,GLERAVGWAVCG,0.622 ± 0.015
13,RFVHCRRKVAKR,0.667 ± 0.047
14,VEMVVEFKFGTS,0.703 ± 0.18
15,PLLRPTRLLPET,0.699 ± 0.093
16,RLAVLKGWTTFV,0.567 ± 0.039
17,PPPPLPPSSPPL,0.751 ± 0.027
18,LDELTRRAEGCG,0.596 ± 0.008
19,NCRGNLDFGPLV,0.727 ± 0.042
20,PPSPPPPPPLHS,0.676 ± 0.042
21,PPHLCPTSLTTL,0.642 ± 0.026
22,RGTGGGSESGVK,0.661 ± 0.063
23,GRPRERWGVGVV,0.6865 ± 0.0023
24,VGLFMGSPFMET,0.693 ± 0.0087
25,RRSTRAGWPGNW,0.5 ± 0.1
26,GLCGFLLIETLL,0.64 ± 0.0085

row,Sequence,protein stability index
1,SRVKMKGTIRER,0.701 ± 0.021
2,GRTYWDCYFPRP,0.778 ± 0.061
3,PLVSGMLTSHLA,0.6613 ± 0.0014
4,LPTPTPPPALRS,0.689 ± 0.053
5,VRNASEDSVGQL,0.708 ± 0.046
6,VGGVVGVGSVGV,0.775 ± 0.14
7,VRNESGGRAAAS,0.6988 ± 0.0016
8,GTGEMNDKDQEE,0.798 ± 0.12
9,PPAPLLLPLSRP,0.735 ± 0.0098
10,KSGGWLWGGGGG,0.663 ± 0.054
11,SRPQTTGPLPPL,0.684 ± 0.05
12,YLSRIFPSLLFL,0.6 ± 0.03
13,PPPAASCLLLPL,0.699 ± 0.028
14,PSLSVPERSPSL,0.7 ± 0.041
15,VWKEPVQYSRQL,0.626 ± 0.051
16,GGGGEVARSAHR,0.6696 ± 0.0056
17,KKRKEKRKKNSI,0.647 ± 0.016
18,SFRASVSAPCLF,0.683 ± 0.067
19,RILLSHGNSRSI,0.699 ± 0.013
20,SEGCASLSGRVG,0.665 ± 0.047
21,SFLSMDANDLLS,0.7 ± 0.029
22,SLLSFLLRSFFP,0.722 ± 0.065
23,VGKQRISPSSPS,0.664 ± 0.018
24,SLALASTLRLPP,0.69 ± 0.047
25,PGGQLRSHPPNV,0.718 ± 0.013
26,YGTLCPLNGCGI,0.633 ± 0.068

row,Sequence,protein stability index
1,GGVLGPEVCVGG,0.693 ± 0.047
2,SPLSLPSPATFP,0.688 ± 0.05
3,VCRSSGSFDLGI,0.774 ± 0.064
4,CTPSSLRPLMPS,0.655 ± 0.073
5,TDLSPFPALFSL,0.766 ± 0.15
6,PAPPPPPPTPPP,0.646 ± 0.039
7,RFQWAFMSWSEP,0.823 ± 0.064
8,SSPPWPILHSPP,0.6952 ± 0.0014
9,WDFLLQGISSPR,0.767 ± 0.12
10,PPPSPPPQPHRP,0.665 ± 0.018
11,VEAVSLVFLYGV,0.552 ± 0.012
12,RFGSGKCLALRG,0.689 ± 0.066
13,GARAGLIDALLS,0.675 ± 0.021
14,ALLAFMSSPRRL,0.7001 ± 0.0028
15,PSAPPPPPPSPP,0.5979 ± 0.005
16,WTIVEALPRGVV,0.679 ± 0.046
17,IKNEKKNKRKKK,0.71337 ± 0.00014
18,TSPRILLPLNAT,0.694 ± 0.014
19,PPAPPPHPPLPP,0.706 ± 0.043
20,HISHPTGDVQTP,0.627 ± 0.083
21,AAGPILAFSVAC,0.638 ± 0.039
22,FSGCVEIYWHWL,0.662 ± 0.011
23,LYPLTPWYVVPP,0.715 ± 0.11
24,VGSSRRGCSGAE,0.685 ± 0.024
25,GGAMYVSFFDKF,0.68 ± 0.021
26,MVKLGVGREEVV,0.655 ± 0.018

row,Sequence,protein stability index
1,AVVRGRADCVMV,0.656 ± 0.017
2,VRTSWRHESIKK,0.618 ± 0.019
3,PPRPPPFPPLLP,0.679 ± 0.058
4,DVWVLAANSSLG,0.758 ± 0.1
5,FSPVSAPPTRVS,0.703 ± 0.042
6,VLGSVGGFVQRD,0.677 ± 0.036
7,FFLSDDALVYNH,0.788 ± 0.065
8,TRSLPPELTPRR,0.705 ± 0.021
9,SCPSLPPPPPCL,0.735 ± 0.04
10,QVDITASPDRTT,0.745 ± 0.056
11,LVRVLHRSHASA,0.685 ± 0.031
12,GGGLGGVRGGVR,0.628 ± 0.074
13,GGWWWAVGFGGL,0.66 ± 0.017
14,RMTRIKKKINKS,0.719 ± 0.034
15,SGVAAGLVAGSL,0.673 ± 0.12
16,NRNKKTKKKVII,0.6697 ± 0.0062
17,VLGGGLGVLTWV,0.753 ± 0.018
18,LGWGWVWSWGRG,0.728 ± 0.052
19,RSDEGHDVLCLY,0.615 ± 0.083
20,PPPPRLSLHSPP,0.713 ± 0.0085
21,KTRKNNSKKNTK,0.688 ± 0.019
22,VVLFPILKLLSN,0.53 ± 0.015
23,HPPPPPSPPGLP,0.6578 ± 0.0013
24,STGTASAHRVQI,0.66 ± 0.011
25,NLINPCRRPPVP,0.648 ± 0.088
26,PPNPPPPPLPPP,0.666 ± 0.068

row,Sequence,protein stability index
1,PLLGLFTRYFDT,0.7 ± 0.088
2,GSGAFSLVSSYF,0.656 ± 0.017
3,FCKTKVRDKATR,0.73 ± 0.035
4,GPPPRSPAFRSL,0.695 ± 0.092
5,RGRDTETFSDNS,0.6901 ± 0.0054
6,GVPYSPKSHRDH,0.643 ± 0.047
7,PPSLSGECSPSF,0.6781 ± 0.0039
8,GPLPYISLSFSP,0.7304 ± 0.0028
9,PLPPPFLHLPPP,0.683 ± 0.036
10,LGEYNRKKKPRI,0.6446 ± 0.0034
11,PPPPPPSAPPPS,0.669 ± 0.026
12,GSWGVGLGKVHW,0.752 ± 0.022
13,WGDDRIRVCVRG,0.611 ± 0.035
14,VGVQLLLSAWEK,0.715 ± 0.066
15,YAAGGPLLLCNQ,0.66 ± 0.021
16,QQGKWHTRRKKY,0.659 ± 0.07
17,VVSRLCCTRIRQ,0.701 ± 0.04
18,FSNFVYFFFRSS,0.666 ± 0.12
19,RFGGSGGLPGGW,0.665 ± 0.031
20,ILPYTDTVCYRY,0.699 ± 0.047
21,NKTKKKRTEPQP,0.6616 ± 0.005
22,LSSFFLLPCLSS,0.576 ± 0.021
23,PPLLPPPPRRPP,0.643 ± 0.0012
24,ALRLLRHTLSSS,0.703 ± 0.016
25,HLPLLLFHPPLH,0.637 ± 0.0051
26,VVGFVRPGMQGL,0.673 ± 0.052

row,Sequence,protein stability index
1,LPSQRPWLAQSI,0.717 ± 0.01
2,VPPNTLTAPHLF,0.844 ± 0.046
3,KTGATAIKKINK,0.695 ± 0.039
4,GVVSRGGRRLGV,0.7011 ± 0.0035
5,KYMENQLSYDAD,0.646 ± 0.051
6,SVDMYTNNYKIH,0.549 ± 0.038
7,HRVRICWVPRSR,0.674 ± 0.027
8,DRRNNRLIRRNQ,0.7174 ± 0.0045
9,EGLCVLMTQVGG,0.576 ± 0.016
10,TKTCPMGVIEIC,0.656 ± 0.0013
11,FSFQTLPTPTSP,0.655 ± 0.06
12,VMVGRVLEKGVV,0.654 ± 0.069
13,HPPSSSHTQPPR,0.683 ± 0.014
14,TFLQRFCVGLAL,0.654 ± 0.041
15,CRGAGGRTVING,0.665 ± 0.043
16,SLPFCFIPVAPF,0.756 ± 0.058
17,LHNQTLLLSEDD,0.652 ± 0.037
18,RPRSPRSLPPPP,0.541 ± 0.043
19,GRVRGRGEGPVA,0.675 ± 0.049
20,FLCLLPLRLFGI,0.603 ± 0.021
